As a reminder, the Kd is the concentration at which binding is half-saturated.

T1: BoNT/F1 (proteolytic BoNT/F) (Clostridium botulinum, UniProt A7GBG3 1-1278)
T1 sequence: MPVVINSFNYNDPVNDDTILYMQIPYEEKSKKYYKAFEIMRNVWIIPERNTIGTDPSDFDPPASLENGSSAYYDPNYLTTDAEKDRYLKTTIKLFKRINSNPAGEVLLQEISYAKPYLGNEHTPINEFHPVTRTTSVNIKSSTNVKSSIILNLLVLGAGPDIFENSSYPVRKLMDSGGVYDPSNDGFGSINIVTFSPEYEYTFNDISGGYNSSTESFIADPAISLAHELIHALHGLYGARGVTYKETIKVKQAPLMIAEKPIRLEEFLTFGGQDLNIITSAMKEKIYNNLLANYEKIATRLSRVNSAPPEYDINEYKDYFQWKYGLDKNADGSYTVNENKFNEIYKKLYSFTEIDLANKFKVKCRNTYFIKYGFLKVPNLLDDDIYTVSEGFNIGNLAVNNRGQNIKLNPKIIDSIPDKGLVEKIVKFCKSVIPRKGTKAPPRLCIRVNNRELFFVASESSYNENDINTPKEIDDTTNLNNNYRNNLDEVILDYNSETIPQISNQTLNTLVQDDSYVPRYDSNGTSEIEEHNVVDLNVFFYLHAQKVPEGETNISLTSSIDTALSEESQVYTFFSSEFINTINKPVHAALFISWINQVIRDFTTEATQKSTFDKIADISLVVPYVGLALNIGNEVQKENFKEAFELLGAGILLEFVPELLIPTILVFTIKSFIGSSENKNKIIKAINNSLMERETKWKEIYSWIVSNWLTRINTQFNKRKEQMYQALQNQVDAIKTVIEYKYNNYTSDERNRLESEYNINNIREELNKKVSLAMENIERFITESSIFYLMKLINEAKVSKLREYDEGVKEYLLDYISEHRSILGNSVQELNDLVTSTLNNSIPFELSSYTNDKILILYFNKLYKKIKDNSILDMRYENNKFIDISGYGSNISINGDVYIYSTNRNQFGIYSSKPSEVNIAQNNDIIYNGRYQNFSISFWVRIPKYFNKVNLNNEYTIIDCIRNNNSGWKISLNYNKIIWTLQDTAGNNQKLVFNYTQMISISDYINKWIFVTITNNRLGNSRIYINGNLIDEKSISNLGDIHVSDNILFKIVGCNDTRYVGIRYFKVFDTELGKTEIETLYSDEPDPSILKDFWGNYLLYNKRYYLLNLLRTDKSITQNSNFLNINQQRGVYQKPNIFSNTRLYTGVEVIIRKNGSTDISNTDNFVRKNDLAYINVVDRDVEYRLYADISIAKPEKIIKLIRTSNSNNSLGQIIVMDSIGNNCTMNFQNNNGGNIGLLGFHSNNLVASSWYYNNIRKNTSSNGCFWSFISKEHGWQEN

T2: BoNT/B light chain (recombinant) (Clostridium botulinum, UniProt P10844 1-441)
T2 sequence: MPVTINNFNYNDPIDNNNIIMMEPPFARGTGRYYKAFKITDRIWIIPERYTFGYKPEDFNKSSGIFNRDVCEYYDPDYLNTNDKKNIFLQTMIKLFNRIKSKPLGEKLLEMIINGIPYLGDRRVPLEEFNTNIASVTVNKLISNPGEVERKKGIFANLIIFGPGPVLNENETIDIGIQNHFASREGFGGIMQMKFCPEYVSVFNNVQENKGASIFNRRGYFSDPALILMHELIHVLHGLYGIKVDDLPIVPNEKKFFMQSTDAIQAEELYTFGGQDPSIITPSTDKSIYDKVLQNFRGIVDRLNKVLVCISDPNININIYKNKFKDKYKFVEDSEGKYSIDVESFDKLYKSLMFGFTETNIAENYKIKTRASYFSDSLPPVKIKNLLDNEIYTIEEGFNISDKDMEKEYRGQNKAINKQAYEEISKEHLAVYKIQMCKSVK

B1: 39D1.1 scFv (scFv, V domains shown)
VH: EVQLVQSGGNLVQPGGSLRLSCAATGPIGSHWMTWVRQAPGQGLEWVANINLDGTEKFYVDSVKGRFTVSRDNRKSSVFLQMNNLRVDDTAVYYCARLQWGGYDGWLSPWGQGTLVTVSS
VL: DIVMTQSPPSLSASVGDRVSLTCRASEYIGTSLNWYQQKPGKAPKLLIYAASALHSGVPSRFSGSGSGTDFTLTISGLQPEDFATYYCQQANDLPLTFGGGTKLEIK
B2: 41B7 scFv (scFv, V domains shown)
VH: B1 VH
VL: B1 VL with K42T
B3: 41A4 scFv (scFv, V domains shown)
VH: B1 VH
VL: B1 VL with A91T
B4: 38D11 scFv (scFv, V domains shown)
VH: QVQLQESGGGVVQPGRSLRLSCAASGFTFSSYGMHWVRQAPGKGLEWVAVIWYDGSNKYYADSVKGRFTISRDNSKNTLYLQMNSLRAEDTAVYYCARDKGWELMTNTDAFDIWGQGTLVTVSS
VL: not shown
B5: 37B4 scFv (scFv, V domains shown)
VH: QVQLVQSGAEVKKPGSSVKVSCKASGGTFSSYAISWVRQAPGQGLEWMGGIIPIFGTANYAQKFQGRVTITTDTSTSTAYMELRSLRSDDTAVYYCARDEDYYDSSGYYDYWGQGTLVTVSS
VL: QTVVTQEPSLTVAPGGTVTLTCGSSAGAVTTDHYPSWFQKKPGQAPTTIIYDTTNKHSMTPGPARFSGSLLGGKAALTLSGAQPEDEAEYYCFLSYRGSRPVFGGGTKVTVL
B6: 31E2 scFv (scFv)
scFv: EVKLVESGAELVRPGASVKLSCTASGFNIKDDYVHWVKQRPEQGLEWIGRIDPEDGETKYAPKFQGKATITADTSSNTAYLQLSSLTSEDTAVYYCALWSNWYFDVWGAGTTVTVSSVDLKSGGSTSGSGKPGSGEGSSGSAREIVLTQSPAIMSASPGEKVTMTCRASSSVSYMHWYQQKPGSSPKPWIYATSNLASGVPARFSGSGSGTSYSLTISRVEAEDAATYYCQQWTSNPPTFGGGTKLEIK
notes: mouse
B7: 31E2.20 scFv (scFv)
scFv: EVKLVESGAELVRPGASVKLSCTASGFNIKDDYVHWVKQRPEQGLEWIGRIDPEDGETKYAPKFQGKATITADTSSNTAYLQLSSLTSEDTAVYYCALWSNWYFDVWGAGTTVTVSAVDLKSGGSTSGSGKPGSGEGSSGSAREIVLTQSPEILSASPGEKVTMTCRASSSVSYMHWYQQKPGSSPKPWIYATSNLASGVPARFSGSGSGTSYSLTISSMEAEDAATYYCQQFHNYPPTFGAGTKLELK
notes: mouse
B8: 31A5 scFv (scFv)
scFv: DVQLQESGPELVKPGASVKISCKASGYSFTDYNMNWVKQSNGKSLEWIGVINPNYGTTSYNQKFKGKATLTVDQSSSTAYMQLNSLTSEDSAVYYCARSGGTGYYFDYWGQGTTLTVSSVDLKSGGSTSGSGKPGSGEGSSGSARQIVLTQSPAILSASPGEKVTMTCRASSSVSYMHWYQQKPGSSPKAWIYATSNLASGVPARFSGSGSGTSYSLTISRVEAEDAATYYCQQWSSYPPTFGSGTKLEIK
notes: mouse
B9: 31A5.1 scFv (scFv)
scFv: B8 scFv with T165A, A190L, W191L, A194D, A204V, V222M, S244G
notes: mouse
B10: 31C3 scFv (scFv)
scFv: EVKLVETGPELKKPGETVKISCKASGYTFTNYGMNWVKQAPGKGLKWMGWINTNTGEPTYAEEFKGRFAFSLETSASTAFLQINNLKNEDTATYFCARGPIYYGTSYRFFDVWGTGTSVTVSSVDLKSGGSTSGSGKPGSGEGSSGSARQIVLTQSPAIMSASPGEKVTMTCRASSSVSSSYLHWYQQKPGSSPKLWIYSTSNLASGVPARFSGSGSGTSYSLTISRMEAEDAATYFCQQWSSFPPTFGGGTKLELK
notes: mouse

Residue numbers refer to the chain shown, from its start.

The target of the first assay is T1, BoNT/F1 (proteolytic BoNT/F). Briefly: yeast scFv FACS.
B1: the Kd was found to be 0.747 nM.

B2 gave a Kd of 0.892 nM.

As to B3, the Kd is 0.533 nM.

B4: the Kd stood at 29.1 nM.

On to B5, for which the Kd turned out to be 10.1 nM.

The target of a further assay is T2, BoNT/B light chain (recombinant). Briefly: yeast scFv FACS.
Turning to B6, the Kd amounted to 17.1 nM.

Regarding B7, the Kd turned out to be 1.96 nM.

Consider B8, for which the Kd is 9.31 nM.

As to B9, the Kd was 1.75 nM.

Consider B10, for which the Kd is 5.27 nM.
